In paper PMC4705653, “Mcm10 coordinates the timely assembly and activation of the replication fork helicase” (Nucleic Acids Research, 2015):

Target: T1, PKA-Mcm3 (radiolabeled) (budding yeast, UniProt P24279 1-971, 32P label on the PKA tag (protein kinase A with [gamma-32P]-ATP))
T1 construct: Mcm3, budding yeast; not shown: PKA tag, N-terminal, kept
Assay: pull-down; 30 pmol GST-tagged protein on Glutathione Sepharose, varying concentrations of 32P-labelled PKA-tagged protein in solution; GST binding buffer (40 mM Tris–HCl pH 7.5, 100 mM NaCl, 0.1 mM EDTA, 10% glycerol, 0.1% Triton X-100, 1 mM DTT, 0.1 mg/ml BSA), 100 μl, 30°C, 10 min; SDS-PAGE and phosphorimaging; in some panels with 5 mM ATP or ATPγS, or with a third labelled protein (Mcm10, Sld3) added
Settings: both partners purified

T1 sequence (P24279 whole entry): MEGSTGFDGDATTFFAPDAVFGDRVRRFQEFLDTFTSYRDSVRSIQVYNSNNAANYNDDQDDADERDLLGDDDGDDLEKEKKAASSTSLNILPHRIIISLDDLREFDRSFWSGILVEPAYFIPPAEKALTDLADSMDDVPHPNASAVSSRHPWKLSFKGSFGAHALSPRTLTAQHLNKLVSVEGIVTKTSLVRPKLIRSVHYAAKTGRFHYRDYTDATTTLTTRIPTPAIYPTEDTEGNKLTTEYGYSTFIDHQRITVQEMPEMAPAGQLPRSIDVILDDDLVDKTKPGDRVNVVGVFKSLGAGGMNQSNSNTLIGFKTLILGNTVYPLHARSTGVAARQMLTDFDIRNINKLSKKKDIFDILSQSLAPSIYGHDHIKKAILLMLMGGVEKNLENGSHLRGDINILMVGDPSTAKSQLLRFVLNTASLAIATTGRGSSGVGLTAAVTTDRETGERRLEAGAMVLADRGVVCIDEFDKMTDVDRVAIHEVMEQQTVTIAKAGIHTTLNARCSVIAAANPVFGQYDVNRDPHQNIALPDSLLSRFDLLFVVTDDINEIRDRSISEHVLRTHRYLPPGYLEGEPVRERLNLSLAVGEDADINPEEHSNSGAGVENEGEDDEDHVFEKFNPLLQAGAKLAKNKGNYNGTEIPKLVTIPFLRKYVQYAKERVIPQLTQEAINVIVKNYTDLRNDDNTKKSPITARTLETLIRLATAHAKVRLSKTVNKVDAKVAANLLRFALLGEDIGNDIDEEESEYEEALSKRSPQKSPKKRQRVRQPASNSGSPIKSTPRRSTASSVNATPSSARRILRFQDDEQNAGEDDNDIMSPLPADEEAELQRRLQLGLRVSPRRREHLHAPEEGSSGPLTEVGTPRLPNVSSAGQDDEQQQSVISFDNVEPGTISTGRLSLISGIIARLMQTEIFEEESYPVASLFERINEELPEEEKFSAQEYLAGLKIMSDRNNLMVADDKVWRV

- binding result: binds
B1: GST-Mcm10 (natural protein, budding yeast, UniProt P32354 1-571, looked up)
chain: MNDPREILAVDPYNNITSDEEDEQAIARELEFMERKRQALVERLKRKQEFKKPQDPNFEAIEVPQSPTKNRVKVGSHNATQQGTKFEGSNINEVRLSQLQQQPKPPASTTTYFMEKFQNAKKNEDKQIAKFESMMNARVHTFSTDEKKYVPIITNELESFSNLWVKKRYIPEDDLKRALHEIKILRLGKLFAKIRPPKFQEPEYANWATVGLISHKSDIKFTSSEKPVKFFMFTITDFQHTLDVYIFGKKGVERYYNLRLGDVIAILNPEVLPWRPSGRGNFIKSFNLRISHDFKCILEIGSSRDLGWCPIVNKKTHKKCGSPINISLHKCCDYHREVQFRGTSAKRIELNGGYALGAPTKVDSQPSLYKAKGENGFNIIKGTRKRLSEEEERLKKSSHNFTNSNSAKAFFDEKFQNPDMLANLDNKRRKIIETKKSTALSRELGKIMRRRESSGLEDKSVGERQKMKRTTESALQTGLIQRLGFDPTHGKISQVLKSSVSGSEPKNNLLGKKKTVINDLLHYKKEKVILAPSKNEWFKKRSHREEVWQKHFGSKETKETSDGSASDLEII
notes: Mcm10, budding yeast, full length PCR product in SpeI/XhoI sites of pET-41; source: cloned in pET-41 vector; not shown: GST, N-terminal, kept
